Assay results from patent US20260274955A1 (JANUX THERAPEUTICS, published 2026).

Target: T1, anti-CD28 Fab (SEQ ID NOs: 202, 203)
T1 construct: biotinylated and captured on neutravidin coated plates in the phage ELISA
Assay: phage binding ELISA on captured biotinylated Fab;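 note: clonal phage supernatants added to wells preincubated with CD28 antigen or blocking buffer only, bound phage detected by ELISA with horseradish-conjugated anti-M13 antibody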
Method: After panning, phage infected bacteria were plated out and colonies picked into 96 well blocks. Clonal phage was then amplified and separated from bacterial cells via centrifugation.
Clonal phage were harvested as crude supernatants and screened via standard ELISAs. […] Prior to the addition of clonal phage, wells were incubated with blocking buffer and CD28 antigen or blocking buffer alone. Without washing or aspirating, clonal phage supernatants were then added to the wells and incubated for a short time. Wells were then washed followed by detection of bound phage using a horse radish conjugated anti-M13 antibody. Clonal phage of interest were then sent for sequence analysis.

T1 sequence (VH, as listed by the source, chain 1 of 2): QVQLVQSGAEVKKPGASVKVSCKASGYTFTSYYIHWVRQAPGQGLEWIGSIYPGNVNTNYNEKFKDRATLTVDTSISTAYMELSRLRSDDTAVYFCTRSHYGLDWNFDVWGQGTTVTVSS
T1 sequence (VL, as listed by the source, chain 2 of 2): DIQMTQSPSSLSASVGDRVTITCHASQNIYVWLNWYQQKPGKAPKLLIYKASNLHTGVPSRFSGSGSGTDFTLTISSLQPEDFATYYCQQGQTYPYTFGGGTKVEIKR

| Binder | Anti-CD28 Fab (SEQ ID NOs: 202, 203) signal |
| --- | --- |
| SCSAGAHYPWPQCF [Phage-898] | 1.16 |
| TCSAGATWAWPLCF [Phage-902] | 2.31 |
| TCSAGATWTWPQCL [Phage-944] | 2.14 |
| TCSAGAAYPWPLCL [Phage-895] | 2.36 |
| LCEEFADYPWPMCL [Phage-965] | 2.01 |
| TCSAGATYTWPKCF [Phage-891] | 1.87 |
| TCSEGATYTWPWCF [Phage-954] | 2.05 |
| SCSAGAMYTWPTCL [Phage-950] | 2.09 |
| WCKPGAPYKWPPCF [Phage-942] | 2.14 |
| QCAAGASYPWPMCL [Phage-951] | 2.08 |
| TCAAGASYAWPWCL [Phage-960] | 2.03 |
| TCAAGATYSWPMCF [Phage-966] | 2 |
| TCAAGATYSWPWCF [Phage-971] | 1.99 |
| TCAAGATYLWPTCL [Phage-903] | 1.68 |
| QCSAGAAWPWPFCL [Phage-976] | 1.97 |
| LCAAGATYPWPLCL [Phage-894] | 2.39 |
| LCAAGATYPWPTCL [Phage-897] | 1.71 |
| MCAAGATYPWPLCL [Phage-970] | 1.99 |
| LCAAGATYAWPLCL [Phage-945] | 2.13 |
| MCAAGATYPWPACL [Phage-914] | 2.3 |
| YCAAGATYPWPLCL [Phage-952] | 2.08 |
| LCAAGASYPWPTCL [Phage-967] | 2 |
| LCAAGFKYPWPLCL [Phage-964] | 2.02 |

| Binder | Anti-CD28 Fab (SEQ ID NOs: 202, 203) signal |
| --- | --- |
| LCAAGATYPWPFCL [Phage-919] | 2.28 |
| TCAAGAHYLWPWCM [Phage-955] | 2.05 |
| MCAAGAHYTWPTCL [Phage-977] | 1.97 |
| TCAAGATYPWPSCL [Phage-924] | 2.25 |
| GCAAGATYPWPSCL [Phage-957] | 2.05 |
| TCSAGFHYEWPRCL [Phage-963] | 2.02 |
| RCAAGASYPWPPCL [Phage-925] | 2.25 |
| TCAAGATWSWPACF [Phage-892] | 2.23 |
| TCAAGAHYPWPACL [Phage-904] | 1.92 |
| HCAAGAHYPWPACL [Phage-968] | 2 |
| TCAAGAMYTWPLCF [Phage-943] | 2.14 |
| TCKAGATYLWPFCL [Phage-926] | 2.23 |
| MCAEFFNYPWPLCL [Phage-946] | 2.11 |
| LCAEFFNYPWPLCL [Phage-975] | 1.98 |
| TCSAGATYAWPFCL [Phage-913] | 2.31 |
| TCSAGATYEWPRCL [Phage-899] | 1.84 |
| TCAAGAAWGWPLCF [Phage-893] | 2.3 |
| TCSAGAHYPWPICL [Phage-900] | 1.78 |
| LCSAGAMYPWPTCL [Phage-922] | 2.25 |
| MCSAGAMYPWPTCL [Phage-959] | 2.04 |
| LCSAGAMYSWPTCL [Phage-909] | 2.39 |
| LCSAGAMWPWPTCL [Phage-908] | 2.39 |
| MCAAGANYPWPQCL [Phage-920] | 2.28 |

| Binder | Anti-CD28 Fab (SEQ ID NOs: 202, 203) signal |
| --- | --- |
| TCAAVFSYGWPECF [Phage-949] | 2.09 |
| TCAAGANYPWPYCL [Phage-969] | 1.99 |
| MCSAGAMYKWPLCL [Phage-912] | 2.32 |
| MCSAGAMYSWPLCL [Phage-918] | 2.29 |
| TCAAGATYAWPECL [Phage-953] | 2.08 |
| TCAAGAHYSWPACF [Phage-923] | 2.25 |
| TCAAGAHYTWPECF [Phage-972] | 1.99 |
| TCAAGAMWAWPVCL [Phage-911] | 2.32 |
| TCAAGAMWHWPVCL [Phage-962] | 2.03 |
| SCKPGVANYWPWCL [Phage-917] | 2.29 |
| TCSAGATYVWPQCF [Phage-956] | 2.05 |
| TCSAGATWSWPMCL [Phage-921] | 2.26 |
| SCAAGATYSWPMCL [Phage-974] | 1.99 |
| TCSAGAYYTWPYCF [Phage-948] | 2.09 |
| TCAAGATYEWPACL [Phage-947] | 2.09 |
| TCAAGATYKWPACL [Phage-958] | 2.05 |
| TCSAGAAYSWPACF [Phage-896] | 1.89 |
| TCSAGASWAWPWCF [Phage-961] | 2.03 |
| SCSAGAAYYWPWCL [Phage-901] | 1.9 |
| SCAAGAMWPWPVCV [Phage-915] | 2.29 |
| SCAAVFSYSWPMCF [Phage-973] | 1.99 |
